Fold Shift of EC50 and Inhibition of Maximal Response data for 14 molecules are collected here from US20110294738A1, “PTHR1 RECEPTOR COMPOUNDS” (priority 2008, published 2011).

To fix the notation:
B1: Compound 39 (peptide)
peptide: Palmitoyl-LYLHSLIFMAFFSEKKYL-NH2
SMILES: CCCCCCCCCCCCCCCC(=O)N[C@@H](CC(C)C)C(=O)N[C@@H](Cc1ccc(O)cc1)C(=O)N[C@@H](CC(C)C)C(=O)N[C@@H](Cc1c[nH]cn1)C(=O)N[C@@H](CO)C(=O)N[C@@H](CC(C)C)C(=O)N[C@H](C(=O)N[C@@H](Cc1ccccc1)C(=O)N[C@@H](CCSC)C(=O)N[C@@H](C)C(=O)N[C@@H](Cc1ccccc1)C(=O)N[C@@H](Cc1ccccc1)C(=O)N[C@@H](CO)C(=O)N[C@@H](CCC(=O)O)C(=O)N[C@@H](CCCCN)C(=O)N[C@@H](CCCCN)C(=O)N[C@@H](Cc1ccc(O)cc1)C(=O)N[C@@H](CC(C)C)C(N)=O)[C@@H](C)CC
B2: Compound 38 (peptide)
peptide: Palmitoyl-LYLHSLIFMAFFSEKKYLWG-NH2
SMILES: CCCCCCCCCCCCCCCC(=O)N[C@@H](CC(C)C)C(=O)N[C@@H](Cc1ccc(O)cc1)C(=O)N[C@@H](CC(C)C)C(=O)N[C@@H](Cc1c[nH]cn1)C(=O)N[C@@H](CO)C(=O)N[C@@H](CC(C)C)C(=O)N[C@H](C(=O)N[C@@H](Cc1ccccc1)C(=O)N[C@@H](CCSC)C(=O)N[C@@H](C)C(=O)N[C@@H](Cc1ccccc1)C(=O)N[C@@H](Cc1ccccc1)C(=O)N[C@@H](CO)C(=O)N[C@@H](CCC(=O)O)C(=O)N[C@@H](CCCCN)C(=O)N[C@@H](CCCCN)C(=O)N[C@@H](Cc1ccc(O)cc1)C(=O)N[C@@H](CC(C)C)C(=O)N[C@@H](Cc1c[nH]c2ccccc12)C(=O)NCC(N)=O)[C@@H](C)CC
B3: Compound 57 (peptide)
peptide: Palmitoyl-RQQYRKLLKSTL-NH2
SMILES: CCCCCCCCCCCCCCCC(=O)N[C@@H](CCCNC(=N)N)C(=O)N[C@@H](CCC(N)=O)C(=O)N[C@@H](CCC(N)=O)C(=O)N[C@@H](Cc1ccc(O)cc1)C(=O)N[C@@H](CCCNC(=N)N)C(=O)N[C@@H](CCCCN)C(=O)N[C@@H](CC(C)C)C(=O)N[C@@H](CC(C)C)C(=O)N[C@@H](CCCCN)C(=O)N[C@@H](CO)C(=O)N[C@H](C(=O)N[C@@H](CC(C)C)C(N)=O)[C@@H](C)O
B4: Compound 14 (peptide)
peptide: Palmitoyl-LAYFRRLHSTRN-NH2
SMILES: CCCCCCCCCCCCCCCC(=O)N[C@@H](CC(C)C)C(=O)N[C@@H](C)C(=O)N[C@@H](Cc1ccc(O)cc1)C(=O)N[C@@H](Cc1ccccc1)C(=O)N[C@@H](CCCNC(=N)N)C(=O)N[C@@H](CCCNC(=N)N)C(=O)N[C@@H](CC(C)C)C(=O)N[C@@H](Cc1c[nH]cn1)C(=O)N[C@@H](CO)C(=O)N[C@H](C(=O)N[C@@H](CCCNC(=N)N)C(=O)N[C@@H](CC(N)=O)C(N)=O)[C@@H](C)O
B5: Compound 54 (peptide)
peptide: Palmitoyl-NIVRVLATKLRETNAGR-NH2
SMILES: CCCCCCCCCCCCCCCC(=O)N[C@@H](CC(N)=O)C(=O)N[C@H](C(=O)N[C@H](C(=O)N[C@@H](CCCNC(=N)N)C(=O)N[C@H](C(=O)N[C@@H](CC(C)C)C(=O)N[C@@H](C)C(=O)N[C@H](C(=O)N[C@@H](CCCCN)C(=O)N[C@@H](CC(C)C)C(=O)N[C@@H](CCCNC(=N)N)C(=O)N[C@@H](CCC(=O)O)C(=O)N[C@H](C(=O)N[C@@H](CC(N)=O)C(=O)N[C@@H](C)C(=O)NCC(=O)N[C@@H](CCCNC(=N)N)C(N)=O)[C@@H](C)O)[C@@H](C)O)C(C)C)C(C)C)[C@@H](C)CC
B6: Compound 2 (peptide)
peptide: Palmitoyl-RRLHSTRNYIH-NH2
SMILES: CCCCCCCCCCCCCCCC(=O)N[C@@H](CCCNC(=N)N)C(=O)N[C@@H](CCCNC(=N)N)C(=O)N[C@@H](CC(C)C)C(=O)N[C@@H](Cc1c[nH]cn1)C(=O)N[C@@H](CO)C(=O)N[C@H](C(=O)N[C@@H](CCCNC(=N)N)C(=O)N[C@@H](CC(N)=O)C(=O)N[C@@H](Cc1ccc(O)cc1)C(=O)N[C@H](C(=O)N[C@@H](Cc1c[nH]cn1)C(N)=O)[C@@H](C)CC)[C@@H](C)O
B7: Compound 58 (peptide)
peptide: Palmitoyl-RETNAGRSDTRQQYRKLLFS-NH2
SMILES: CCCCCCCCCCCCCCCC(=O)N[C@@H](CCCNC(=N)N)C(=O)N[C@@H](CCC(=O)O)C(=O)N[C@H](C(=O)N[C@@H](CC(N)=O)C(=O)N[C@@H](C)C(=O)NCC(=O)N[C@@H](CCCNC(=N)N)C(=O)N[C@@H](CO)C(=O)N[C@@H](CC(=O)O)C(=O)N[C@H](C(=O)N[C@@H](CCCNC(=N)N)C(=O)N[C@@H](CCC(N)=O)C(=O)N[C@@H](CCC(N)=O)C(=O)N[C@@H](Cc1ccc(O)cc1)C(=O)N[C@@H](CCCNC(=N)N)C(=O)N[C@@H](CCCCN)C(=O)N[C@@H](CC(C)C)C(=O)N[C@@H](CC(C)C)C(=O)N[C@@H](Cc1ccccc1)C(=O)N[C@@H](CO)C(N)=O)[C@@H](C)O)[C@@H](C)O
B8: Compound 13 (peptide)
peptide: Palmitoyl-GGYFRRLHSTRNYIH-NH2
SMILES: CCCCCCCCCCCCCCCC(=O)NCC(=O)NCC(=O)N[C@@H](Cc1ccc(O)cc1)C(=O)N[C@@H](Cc1ccccc1)C(=O)N[C@@H](CCCNC(=N)N)C(=O)N[C@@H](CCCNC(=N)N)C(=O)N[C@@H](CC(C)C)C(=O)N[C@@H](Cc1c[nH]cn1)C(=O)N[C@@H](CO)C(=O)N[C@H](C(=O)N[C@@H](CCCNC(=N)N)C(=O)N[C@@H](CC(N)=O)C(=O)N[C@@H](Cc1ccc(O)cc1)C(=O)N[C@H](C(=O)N[C@@H](Cc1c[nH]cn1)C(N)=O)[C@@H](C)CC)[C@@H](C)O
B9: Compound 10 (peptide)
peptide: Palmitoyl-LAYFRRLHSTRNYIHMH-NH2
SMILES: CCCCCCCCCCCCCCCC(=O)N[C@@H](CC(C)C)C(=O)N[C@@H](C)C(=O)N[C@@H](Cc1ccc(O)cc1)C(=O)N[C@@H](Cc1ccccc1)C(=O)N[C@@H](CCCNC(=N)N)C(=O)N[C@@H](CCCNC(=N)N)C(=O)N[C@@H](CC(C)C)C(=O)N[C@@H](Cc1c[nH]cn1)C(=O)N[C@@H](CO)C(=O)N[C@H](C(=O)N[C@@H](CCCNC(=N)N)C(=O)N[C@@H](CC(N)=O)C(=O)N[C@@H](Cc1ccc(O)cc1)C(=O)N[C@H](C(=O)N[C@@H](Cc1c[nH]cn1)C(=O)N[C@@H](CCSC)C(=O)N[C@@H](Cc1c[nH]cn1)C(N)=O)[C@@H](C)CC)[C@@H](C)O
B10: Compound 56 (peptide)
peptide: Palmitoyl-DTRQQYRKLLKSTL-NH2
SMILES: CCCCCCCCCCCCCCCC(=O)N[C@@H](CC(=O)O)C(=O)N[C@H](C(=O)N[C@@H](CCCNC(=N)N)C(=O)N[C@@H](CCC(N)=O)C(=O)N[C@@H](CCC(N)=O)C(=O)N[C@@H](Cc1ccc(O)cc1)C(=O)N[C@@H](CCCNC(=N)N)C(=O)N[C@@H](CCCCN)C(=O)N[C@@H](CC(C)C)C(=O)N[C@@H](CC(C)C)C(=O)N[C@@H](CCCCN)C(=O)N[C@@H](CO)C(=O)N[C@H](C(=O)N[C@@H](CC(C)C)C(N)=O)[C@@H](C)O)[C@@H](C)O
B11: Compound 55 (peptide)
peptide: Palmitoyl-NIVRVLATKLRE-NH2
SMILES: CCCCCCCCCCCCCCCC(=O)N[C@@H](CC(N)=O)C(=O)N[C@H](C(=O)N[C@H](C(=O)N[C@@H](CCCNC(=N)N)C(=O)N[C@H](C(=O)N[C@@H](CC(C)C)C(=O)N[C@@H](C)C(=O)N[C@H](C(=O)N[C@@H](CCCCN)C(=O)N[C@@H](CC(C)C)C(=O)N[C@@H](CCCNC(=N)N)C(=O)N[C@@H](CCC(=O)O)C(N)=O)[C@@H](C)O)C(C)C)C(C)C)[C@@H](C)CC
B12: Compound 11 (peptide)
peptide: Palmitoyl-GSYFRRLHSTRNYIH-NH2
SMILES: CCCCCCCCCCCCCCCC(=O)NCC(=O)N[C@@H](CO)C(=O)N[C@@H](Cc1ccc(O)cc1)C(=O)N[C@@H](Cc1ccccc1)C(=O)N[C@@H](CCCNC(=N)N)C(=O)N[C@@H](CCCNC(=N)N)C(=O)N[C@@H](CC(C)C)C(=O)N[C@@H](Cc1c[nH]cn1)C(=O)N[C@@H](CO)C(=O)N[C@H](C(=O)N[C@@H](CCCNC(=N)N)C(=O)N[C@@H](CC(N)=O)C(=O)N[C@@H](Cc1ccc(O)cc1)C(=O)N[C@H](C(=O)N[C@@H](Cc1c[nH]cn1)C(N)=O)[C@@H](C)CC)[C@@H](C)O
B13: Compound 12 (peptide)
peptide: Palmitoyl-SSYFRRLHSTRNYIH-NH2
SMILES: CCCCCCCCCCCCCCCC(=O)N[C@@H](CO)C(=O)N[C@@H](CO)C(=O)N[C@@H](Cc1ccc(O)cc1)C(=O)N[C@@H](Cc1ccccc1)C(=O)N[C@@H](CCCNC(=N)N)C(=O)N[C@@H](CCCNC(=N)N)C(=O)N[C@@H](CC(C)C)C(=O)N[C@@H](Cc1c[nH]cn1)C(=O)N[C@@H](CO)C(=O)N[C@H](C(=O)N[C@@H](CCCNC(=N)N)C(=O)N[C@@H](CC(N)=O)C(=O)N[C@@H](Cc1ccc(O)cc1)C(=O)N[C@H](C(=O)N[C@@H](Cc1c[nH]cn1)C(N)=O)[C@@H](C)CC)[C@@H](C)O

* marks the point of attachment. Palmitoyl = CCCCCCCCCCCCCCCC(=O)*

Sequence of PTHR1 receptor (P25961 whole entry): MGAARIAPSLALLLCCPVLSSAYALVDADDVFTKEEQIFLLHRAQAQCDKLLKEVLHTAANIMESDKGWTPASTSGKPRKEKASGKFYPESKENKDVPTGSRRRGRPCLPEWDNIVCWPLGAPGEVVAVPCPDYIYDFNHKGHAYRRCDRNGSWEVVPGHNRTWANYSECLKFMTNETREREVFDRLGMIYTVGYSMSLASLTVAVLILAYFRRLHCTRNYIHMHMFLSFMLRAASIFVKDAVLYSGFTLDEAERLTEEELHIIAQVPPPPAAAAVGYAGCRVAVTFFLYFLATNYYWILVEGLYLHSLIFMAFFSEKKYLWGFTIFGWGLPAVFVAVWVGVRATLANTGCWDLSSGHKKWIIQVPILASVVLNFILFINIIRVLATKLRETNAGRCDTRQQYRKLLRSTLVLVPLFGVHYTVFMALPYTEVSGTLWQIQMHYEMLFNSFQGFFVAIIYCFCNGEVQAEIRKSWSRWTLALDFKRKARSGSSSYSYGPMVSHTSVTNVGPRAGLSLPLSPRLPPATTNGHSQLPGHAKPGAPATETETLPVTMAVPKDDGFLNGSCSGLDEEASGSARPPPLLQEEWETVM

This experiment addresses PTHR1 receptor.
B1: the Fold Shift of EC50 turned out to be 1.3 fold and the Inhibition of Maximal Response was 29.3%.
For B2, in that order: 1.1 fold and 21.9%.
For B3, in that order: 15.6 fold and -38.8%.
For B4, in that order: 0.7 fold and 15.2%.
Take B5: the Fold Shift of EC50 stood at 0.7 fold and the Inhibition of Maximal Response came out at 17.5%.
With B6, the Fold Shift of EC50 was 1.9 fold and the Inhibition of Maximal Response is -24.9%.
On to B7, for which the Fold Shift of EC50 is 17.7 fold and the Inhibition of Maximal Response stood at 0.0367.
As for B8, the Fold Shift of EC50 came to 0.7 fold and the Inhibition of Maximal Response came to 29.2%.
As for B9, the Fold Shift of EC50 was determined as 1.1 fold and the Inhibition of Maximal Response was determined as 24.1%.
For B10, the Fold Shift of EC50 turned out to be 1.9 fold and the Inhibition of Maximal Response is -30.4%.
On to B11, for which the Fold Shift of EC50 is 0.6 fold and the Inhibition of Maximal Response amounted to 26.1%.
Consider B12, for which the Fold Shift of EC50 came out at 1.1 fold and the Inhibition of Maximal Response was found to be 19.8%.
For B13, the Fold Shift of EC50 came out at 0.9 fold and the Inhibition of Maximal Response was determined as 26.6%.
Palmitoyl-LYLHSLIFMAFFSEKK-NH2 (not fully specified) [Compound 40]: the Fold Shift of EC50 stood at 1.5 fold and the Inhibition of Maximal Response turned out to be 28.3%.
